{"source": "patent CN116789813A", "target": "突变型金黄色葡萄球菌α-溶血素(mHla), Hla(H35L) (Staphylococcus aureus (strain MRSA 252))", "test": "ELISA, mHla coated at 2μg/mL, anti-human IgG Fab-HRP detection"}
{"binder": "全人源Hla单克隆抗体Hla-38 (antibody, V domains shown) VH: QVQLLESGGGVVQPGRSLRLSCIVSGFDLNSFAMHWVRQPPGKGLEWVAVIWHDGSERFYAASVKGRFTISRDTSRNTLFLQMNSLRVEDTAVYYCAKSGDYYENSGYFGSWGQGALVTVSS VL: ELVLTQSPATLSVSPGERATLSCRASQSVGNDLAWYQQKPGQAPRLLIYGASTRATGIPARFSGSGFGTEFTLTISSLQSEDFAVYYCQQYNNWWTFGQGTKVDIK", "values": [{"measurement": "EC50", "result": 0.849, "unit": "mg/L"}]}
